In patent US20250353906A1 one finds IC50 (nM, replicate 2), inhibition of TNFα signaling in HEK-BLUE TNFα cells data, which are given here for one substance.

The test deals with human TNFα (human) (UniProt P01375). Kind of test: cell-based or functional assay.
human TNFα (human), sequence (P01375 77-233 limits assumed): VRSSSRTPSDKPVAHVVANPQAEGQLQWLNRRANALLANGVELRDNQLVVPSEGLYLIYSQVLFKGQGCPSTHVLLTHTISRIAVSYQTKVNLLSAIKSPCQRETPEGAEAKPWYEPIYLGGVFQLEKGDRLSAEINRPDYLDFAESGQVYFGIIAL

As to Etanercept (PRO078) (Fc fusion), the IC50 (nM, replicate 2), inhibition of TNFα signaling in HEK-BLUE TNFα cells stood at 0.07 nM.
